Laboratory results taken from the DeepSol protein solubility set.

test: soluble on expression in E. coli; label from the status in PepcDB or PDB records

Row | Sequence | soluble on expression in E. coli
1 | GAMAPERPLVGVNGLDVTSLRPFDLVIPFTIKKGEITGEVRMPSGKVAQPTITDNKDGTVTVRYAPSEAGLHEMDIRYDNMHIPGSPLQFYVDYVNCGHVTAYGPGLTHGVVNKPATFTVNTKDAGEGGLSLAIEGPSKAEISCTDNQDGTCSVSYLPVLPGDYSILVKYNEQHVPGSPFTARVTGDD | soluble
2 | MPIADTVTLNSGYEMPVIGYGTWQLPKNLAAERVRDALEAGYRHIDSALSFKNQEEVAAGIKDWCKIRKVRREELFLSSKIWNTYHSRNRCMQQIDEMLEIFETTYMDLIVIHWPFGWAEDEPPGERGLWPRGANGKMRYSDVDYLETWKALEDAHRSGKIRSIGLANFNIGQVEQVWTKGLIKPAVLQVEMNPFLDQEEIRQFCREKGIILTAFMLTGNPGSALYRKHEDPNLLYNETLQSIAKGHGKSVVQVLVRWAIDLRTTALVKSSESKRIRQNINIFKFRLTSQEIARIKALNIDFRILNPLLGNYDHPYFPWPHVQEEQLPQKVEEPDPENL | not soluble
3 | MTRQFLEFEQPIEELNQKIEALRMVGSDNEVNLSEEIARLEAKCSELTENIFSRLEPWQIAQMARHPLRPQTTDYIERIFTDFQELHGDRSYSSAPAIIGGMARLNGEPVMVLGHQKGKRTKEKVYRNFGMARPEEYRKALRLMRMAEKFKMPVVTFIDTAGAYPGIGAEERNQSEAIARNLFAMSRIKTPIVCIVTGEAGSGGALAIGVGDKIIMLQFSIYSVISPEGCASILWKDASKASEAARAMGITADRIFENELVDMVVPEPLGGAHRDVDEMASRLKRLLTSELQALKKVPLDQLIELRYQKFMAMGACD | not soluble
4 | GPGSMERNPAHPLDATAKLPVRQKEVTFDSLCVNADDRFVEGLSGKSEERRGFRPNTKLYAANAARTRGRTGGASDLGFTESLPTLNEVIGEEKISHLGRLRARPPRAAEGSTDVIPVARVKAKSSLTRPVHATPTSIPSTRSLWVEGSSVLNQDVGHASAALTHLSDCVAQERRLKVEWEAARLAKIRALRAVVKVFMQSFIDRGSFARSTSVGGKVMSDTLAVARCSVITNTLVGTVQNFMRAFRSRRLCAARGPVSGLQLFPNIAGQESDRFTLSLYSSAPGGAESSVNESYVSPNHSVSDYLEEEEVSRIKQLYFDYFDCEAVSISSAVASGSDMSIFAYSAASSISRPSSPVSRGGDHSSFSHCASTTM | not soluble
5 | MGSDKIHHHHHHMINCIIVEDAPLAVDKLKNFISKVPLLDLAGTFDNGLDAFDFLQSNTIDLLFLDIQMEQFTGLQLLQALHTRPHIIIVSAYGEYAVQGFEYDVTDYLLKPYSFERFLKAVNKVQTEMASNPPAQPLPKDYIFLKTEYRMVRINLCDILYIEGKGAYLHVITDTTRIMTLLSFKEIESLLPAKQFIRIHKSYLIAINKIDNIERNVVKIANMRIPIGKSYLKDFYLRLQ | not soluble
6 | MDPSVTLWQFLLQLLREQGNGHIISWTSRDGGEFKLVDAEEVARLWGLRKNKTNMNYDKLSRALRYYYDKNIIRKVSGQKFVYKFVSYPEVAGC | soluble
7 | MKAIVTLNTTGAQLSVPASSRNLLETLEYHQVPVEYQCRSGYCGSCRMRLLKGEVCYLQQPLAFIQAGEILPCCCQPKGNIEIEF | not soluble
8 | TCGLRQYSQPQFRIKGGLFADIASHPWQAAIFAKHRRSPGERFLCGGILISSCWILSAAHCFQERFPPHHLTVILGRTYRVVPGEEEQKFEVEKYIVHKEFDDDTYDNDIALLQLKSDSSRCAQESSVVRTVCLPPADLQLPDWTECELSGYGKHEALSPFYSERLKEAHVRLYPSSRCTSQHLLNRTVTDNMLCAGDTRSGGPQANLHDACQGDSGGPLVCLNDGRMTLVGIISWGLGCGQKDVPGVYTKVTNYLDWIRDNMRP | soluble
9 | MKVTITANAPLSAGAMAVKKEAENANVFAALLAHKQQELLPAGAETSLFQEESSKNKEPDWQNGGMETGAAGQPSSAEKKPAQIESLWLAPSIMTALAVAPISAAAGAPLLEADQQAEGKTSDHWTFPFVGAMNGEETIAAQPAADEAGFERAFITDGRKSGHIDAESGSPSSGKTGMFPPLLSDGDQRPFHEQGGNRTVVALPNEASPVRPAGEKDVSLPKRGDKGHGGEATPSFTTPPALLSPSSSSVGLVGEMPASAGGSVADQVAHALRSARWMKLPNGVMQLVIRLHPEHLGTVTVKMTEEGGKLAAKLLVANDAVKELLYAHLPQLAQQLDASSITVEKWTVWSDYDSPAMPPYSGNRQGGQQQGESRQKQKREPSSSFPFALDGIEADA | not soluble
10 | YTIYKEPLSLAPFEKIPSPLRRGLGKVAEVFPDGMRGKSLLQRGSMTMEERYYGNARSFNFDQMKRVIPWAKKEWDHREVTAPIYAQSEHMDPVARMQHLDLFTWMRGDILVKADKINMAHSLELRVPFLDKEVFEVAETIPYDLKIANGTTKYALRKAMEQIVPPHVLHRKKLGFPVPMRHWLAGDELFGWAQDTINESMTDQYFDKAAVLAMLNEHKNGVSDHSRRLWTVLAFMIWHGIFVEHRIDPGIEKRDYPVYL | not soluble
11 | AHHHHHHGSEYTIVDGEEYIEEIKKLDREISYSFVRFPISYEEYEERHEELFESLLSQGEHKFFVALNERSELLGHVWICITLDTVDYVKIAYIYDIEVVKWARGLGIGSALLRKAEEWAKERGAKKIVLRVEIDNPAVKWYEERGYKARALIMEKPI | soluble
12 | MNRRDFLKTAGLTGIALGLPGCARSLPFGRDVFPDFGDDARPYLGLATSLREEHDYEARVEGTIPAGLRGTLYRNGPALFDRGGMRKRTLLDGDGMVQAFRFGDRGIRYANRFVRTRKFVEEEAAGRFLHPTWSTQAPGGIWTNVWPTERLLSQAGITVFPWRGRLYAFDESSFPYELDPDTLATVGETTFGLPRDLTTYSAHGKFDPVTGEWLHFGIRYGPRTFVHLTTFNADGTLRRHRALELPRAIYMHDWFVTERHVVFHLHPVEIAYWPFLLGIRSMAESLRWRPERGTILMVAERDGEAPPRLVETEACYLWHTFNAWEERGKITADFVGYRNPDHFISDDPVITAVMLGRRGTYSYPGEVMRYRIDPARGTAAREVLHQGSCEWPRIDERLRCRPHRTGYMLRCLPGEFFWSIVMGLDPVTGRTDEYSFGRGVYCTEPVFAPRPDTLAGGPGWLLVELYDSRTRTSSLAILDADRIADGPLALVRLTHHVPFSYHGWWQPASLEHHHHHH | not soluble
13 | DLKILDPIWTTAYITRNHGYMVYDTLFSLDAQGNIQPQMVDTVTTSEDGLMVTMTLRDGLVWHDGAPVTAADCVASINRWGSKDAMGQKMMSFVESLEATDDKTITFKLSTPTGLVTLALAKPSSNVPFMMPERVASTPSSEQIADYTGSGPFVFRQ | not soluble
14 | MGKVYIVGAGPGDPDLITVKGLKCIEKADVILYDRLVNKELLSYAKPEADLIYCGKLPNYHTMKQETINTFLIKYAKKGKIVTRLKGGDPFVFGRGGEEAEALAKQGVPFEIVPGISAGIAAPAYAGIPVTHRDASASFAIVTGHRKEDAAEEVKWGNLAKGVETLAVYMGVSNLPYICEQLMKHGKDKSTPAAIIERGTTSMQRTVVGTLGTIVDVAKKEQIQNPSMIVIGEVVRFREKIHWFEKQTESTYQVSGVL | not soluble
15 | MSLRKPPLHMLPLGGCGEIGMNFTLYGHQDHWIVVDCGMMIRQDLPQAPLQVPNVDMLASQNIVPRAIVVTHGHEDHIGAIAWLWPRWQCPVHATPLAAGLLRLRFAEQQLPTSAIQVITPGDAMESGPFDIRFLPLPHSIPESCALLLTTPQHRILHTGDWKLDPEPLIGKPASPQRFQALAPVDLVVGDSTNAPVPGHSRSEGEVARALETTIGACPGRVIVSCFASNLARILALGRAAHACGRRVSLMGRSMERMVGVARGLGYLEDFPPLVPVRDLGYLPPEEVLVIATGSQGEPRAALSRLAQGRHADFELHPGDSVIFSAKAIPGNELLIERLQAGLKRAKVTIFDERSHPELHASGHPAQAELRRFYEWVKPRRLLPVHGEQQHQQAHRALAESLGIEVPWIPRNGDMLRLDAEGLHCESRHSLAPHIVTQNRIHPLEGLRAPEASSMHRRSGILSLTLPVVRQSTGWVRIGRLLWDTSHDLPLDDVALADWVDEQLAGHDADTIVTLRQRLHGPLMHWLGDHLRHLPDVHLHIMAAEGDTVYDAEGHHHHHH | soluble
16 | GYKKIPKKKLKDLMVELYVADGHFANIYDPKLTDSVREAVYTNLFAKYGTTRMDYDSTLMWYGRHDLEEYIAICQSVRDELEKQRIDLDKQITLEREKKGMDMLDGSFYELDSINMLAGDSTCFYRPEMPFLNRSFIITPGTAYKEGTRLEFVTRLRGLQLRPDATMEMFLQLVCTDNTVLTVSRPVNPGINMLTTSVPDSASVSRVYGYLRGFPDSAGIMSLSPFVIDSFSLRKF | not soluble
17 | AAQTTAAVEDMSMGAEDAPVTIVEYASFTCPHCANFEKEVLTPLKRDYIDTGKVRFTFREVYFDRYGLWAAMVARCGGEMRYFGIADLIFEQQKEWVTNDPAQVATNLRKIGKTAGLDDAALDACMNDQAKAEAMVAAFQKNSQADDITATPSLIINGTKHSNMSYEELKKIIDAELAK | not soluble
18 | NEPFHLATERNRVAVMSSGGKESLTTFGMLREIGADVFPVFFNESGGHWKTAKIAYDYMKKNYSNVHKVWSNVDRFYSFMNGHMPMLDQKEIRKTADSYPVQ | not soluble
19 | SHPNQNDKIVVGLDIGTTKICAIVGRKNEYGKLEILGIGKAVSEGVIRGMVTNINLTVTAIEKAIKEASDQSGIDIGVVNVGIAGQHIKSSVHHHGINRPGGDEEISVDDVNRLTADMYRTVMPFGN | not soluble
20 | MAEKKKDEKETKETENFILKLSAETVLFSNAKLGDEVTTTVLKMTNPTTDKCAFKVKCTSNDLFKIKTPVGYIKPDETIDIPLCHNPGKAIPENNKQYFAFYYIKTKEDGPARDAWKNHKPDGMKRIYISFKKGDEKGDEKKDEKKEEKKEEKKEEKKEDKKDDKKEAKKEEKKEEKKEEKKEEKKEEKKEEKKEEKNDENKEEKKEEKKDEKKEEKKVEEAKK | soluble
21 | MKVTVHAKNIELTNALKDCVEKKISKLSKYFEPGVEAKATLSVEKNKQIVEIMIPFNGILLRGEESTDDMYKSIDLVEEKIERQIRKQKTRLSKKNRYDSLRFAHIDPIEDMKEEKEAKIVKTKRFDVKPMGAEEAVLQMELIGHDFFVFQDPETNQLNVVYKRKDGNYGLIEPGLGEELEHHHHHH | soluble
22 | MAGDPMPKNKILIYLLSTTLVLPTLVSPTAYADTPQKDTTAKTTSHDSKKSNDDETSKDTTSKDIDKADNNNTSNQDNNDKKFKTIDDSTSDSNNIIDFIYKNLPQTNINQLLTKNKYDDNYSLTTLIQNLFNLNSDISDYEQPRNGEKSTNDSNKNSDNSIKNDTDTQSSKQDKADNQKAPKSNNTKPSTSNKQPNSPKPTQPNQSNSQPASDDKANQKSSSKDNQSMSDSALDSILDQYSEDAKKTQKDYASQSKKDKNEKSNTKNPQLPTQDELKHKSKPAQSFNNDVNQKDTRATSLFETDPSISNNDDSGQFNVVDSKDTRQFVKSIAKDAHRIGQDNDIYASVMIAQAILESDSGRSALAKSPNHNLFGIKGAFEGNSVPFNTLEADGNKLYSINAGFRKYPSTKESLKDYSDLIKNGIDGNRTIYKPTWKSEADSYKDATSHLSKTYATDPNYAKKLNSIIKHYQLTQFDDERMPDLDKYERSIKDYDDSSDEFKPFREVSDSMPYPHGQCTWYVYNRMKQFGTSISGDLGDAHNWNNRAQYRDYQVSHTPKRHAAVVFEAGQFGADQHYGHVAFVEKVNSDGSIVISESNVKGLGIISHRTINAAAAEELSYITGKLEHHHHHH | soluble
23 | MRGYLGKAQQNALINEAQSYPLTRPQIQVFGRYHAIPRQQVWYGDLGCDYLYSGLFIRALPWPKYLQKLRDKLQRDFELGSNGVLVNRYADGQDCMGAHSDDEPEIAHGSDIASISLGATRDFVIKHKHSKQKCCISLHSGDLLIMHWPMQRDWLHSVPKRLKVTEPRWNYTFRQLVVNYHGLEHHHHHH | not soluble
